Measured values from article PMC6745792, “A novel biotinylated nanobody-based blocking ELISA for the rapid and sensitive clinical detection of porcine epidemic diarrhea virus” (Journal of Nanobiotechnology, 2019).

B1: Nb1 (anti-PEDV N protein nanobody) (VHH)
VHH: QVQLQESGGGSVQSGGSLRLSCAVSGYTYSGLCMGWFRQAPGREREGVATIDTDGYTSYTDSVKGRFTISRDNAKNTLLLQMNSLQPEDTAMYYCAADPRTAIYCSTSRSAKWYNHWGQGTQVTVSS
B2: Nb1 (VHH)
VHH: B1 VHH
notes: VHH from a Bactrian camel immunised with PEDV N protein, selected by phage display

Experiments:
[1] = target: T1, PEDV N protein (recombinant nucleocapsid protein of porcine epidemic diarrhea virus) (Porcine epidemic diarrhea virus, strain …, UniProt Q07499); experiment: SPR; Biacore 3000; purified PEDV N protein (5 µg/ml) amine-coupled to a CM5 chip; Nb1, Nb2, Nb3 flowed at 3 µg/ml each; HBS-EP (10 mM HEPES pH 7.4, 150 mM NaCl, 3 mM EDTA, 0.005% P20), room temperature; 1:1 Langmuir model; settings: both partners purified
T1 construct: also called PEDV N antigen; N-His-tagged recombinant protein; source: recombinant, purified ('highly pure')

[2] = target: T2, PEDV N protein (recombinant nucleocapsid protein of porcine epidemic diarrhea virus) (Porcine epidemic diarrhea virus, strain …, UniProt Q07499); experiment: SPR; Biacore 3000; purified PEDV N protein (5 µg/ml) amine-coupled to a CM5 chip; Nb1, Nb2 and Nb3 each flowed over at 3 µg/ml; HBS-EP (10 mM HEPES pH 7.4, 150 mM NaCl, 3 mM EDTA, 0.005% P20); room temperature; 1:1 Langmuir model
T2 construct: also called N-His recombinant protein; N-His-tagged recombinant protein; source: recombinant, purified

Binder	kon [1]	koff [2]
B1	197000 M⁻¹ s⁻¹	–
B2	–	0.00206 s⁻¹
